Measured values published in the supplement of paper PMC10567573.

B1: ZNF8 (parent)
chain: VHVIGVEEPSVGASMLFDIREST

Variants of: B1
Experiment: protein stability index of a GFP-peptide fusion (GPS, HEK-293T) (PSI 1-6); higher = more stable
Conditions: c terminus: native
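Also: lentivirally expressed fusions sorted by FACS into six bins by GFP to DsRed ratio, PSI derived from sequencing read proportions per bin multiplied by bin number.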

With V1G as the variant, how does the protein stability index read?
Its protein stability index is 3.85.

With V1H as the variant, how does the protein stability index read?
Its protein stability index is 3.78.

Which protein stability index does the source give for V1I here?
Its protein stability index is 2.

Which protein stability index does the source give for V1K here?
The protein stability index was 3.52.

For V1L, which protein stability index is on record?
The protein stability index was 1.79.

Which protein stability index does the source give for V1M here?
The protein stability index was 2.29.

For V1N, which protein stability index is on record?
The protein stability index was 4.07.

With V1P as the variant, how does the protein stability index read?
Its protein stability index is 3.77.

Which protein stability index does the source give for V1Q here?
The protein stability index was 3.88.

With V1R as the variant, how does the protein stability index read?
Its protein stability index is 2.82.

With V1S as the variant, how does the protein stability index read?
The protein stability index was 3.97.

For V1T, which protein stability index is on record?
Its protein stability index is 3.92.

With V1W as the variant, how does the protein stability index read?
Its protein stability index is 2.06.

For V1Y, which protein stability index is on record?
Its protein stability index is 2.29.

With H2A as the variant, how does the protein stability index read?
Its protein stability index is 2.67.

With H2C as the variant, how does the protein stability index read?
The protein stability index was 1.63.

For H2D, which protein stability index is on record?
The protein stability index was 3.42.

With H2E as the variant, how does the protein stability index read?
Its protein stability index is 3.35.

With H2F as the variant, how does the protein stability index read?
The protein stability index was 1.97.

Which protein stability index does the source give for H2G here?
The protein stability index was 3.35.

For H2I, which protein stability index is on record?
Its protein stability index is 2.56.

Which protein stability index does the source give for H2K here?
The protein stability index was 2.29.

Which protein stability index does the source give for H2L here?
Its protein stability index is 2.9.

With H2M as the variant, how does the protein stability index read?
The protein stability index was 1.43.

With H2N as the variant, how does the protein stability index read?
Its protein stability index is 2.95.

With H2P as the variant, how does the protein stability index read?
The protein stability index was 3.59.

For H2Q, which protein stability index is on record?
Its protein stability index is 2.27.

Which protein stability index does the source give for H2R here?
The protein stability index was 2.09.

For H2S, which protein stability index is on record?
The protein stability index was 2.81.

For H2T, which protein stability index is on record?
The protein stability index was 1.79.

Which protein stability index does the source give for H2V here?
The protein stability index was 1.83.

Which protein stability index does the source give for H2W here?
The protein stability index was 2.25.

For H2Y, which protein stability index is on record?
The protein stability index was 2.51.

For V3A, which protein stability index is on record?
Its protein stability index is 3.18.

For V3C, which protein stability index is on record?
The protein stability index was 2.74.

For V3D, which protein stability index is on record?
Its protein stability index is 3.95.

Which protein stability index does the source give for V3E here?
Its protein stability index is 4.1.

Which protein stability index does the source give for V3F here?
The protein stability index was 1.94.

With V3G as the variant, how does the protein stability index read?
The protein stability index was 3.42.

Which protein stability index does the source give for V3H here?
The protein stability index was 3.02.

For V3I, which protein stability index is on record?
Its protein stability index is 1.84.

With V3K as the variant, how does the protein stability index read?
The protein stability index was 3.36.

With V3L as the variant, how does the protein stability index read?
The protein stability index was 1.88.

Which protein stability index does the source give for V3M here?
Its protein stability index is 2.84.

For V3N, which protein stability index is on record?
Its protein stability index is 3.89.

For V3P, which protein stability index is on record?
The protein stability index was 3.49.

Which protein stability index does the source give for V3Q here?
Its protein stability index is 3.87.

With V3R as the variant, how does the protein stability index read?
Its protein stability index is 2.81.

For V3S, which protein stability index is on record?
The protein stability index was 3.42.

With V3T as the variant, how does the protein stability index read?
Its protein stability index is 3.08.

Which protein stability index does the source give for V3W here?
Its protein stability index is 1.47.

With V3Y as the variant, how does the protein stability index read?
Its protein stability index is 1.54.

Which protein stability index does the source give for I4A here?
The protein stability index was 3.55.

For I4C, which protein stability index is on record?
The protein stability index was 2.59.

With I4D as the variant, how does the protein stability index read?
The protein stability index was 3.97.

For I4E, which protein stability index is on record?
Its protein stability index is 3.73.

Which protein stability index does the source give for I4F here?
Its protein stability index is 2.13.

Which protein stability index does the source give for I4G here?
Its protein stability index is 3.34.

For I4H, which protein stability index is on record?
The protein stability index was 2.62.

With I4K as the variant, how does the protein stability index read?
Its protein stability index is 3.18.

For I4L, which protein stability index is on record?
The protein stability index was 2.51.

Which protein stability index does the source give for I4M here?
The protein stability index was 2.77.

With I4N as the variant, how does the protein stability index read?
Its protein stability index is 3.43.

Which protein stability index does the source give for I4P here?
The protein stability index was 3.88.

Which protein stability index does the source give for I4Q here?
The protein stability index was 3.47.

Which protein stability index does the source give for I4R here?
The protein stability index was 2.9.

For I4S, which protein stability index is on record?
Its protein stability index is 3.63.

With I4T as the variant, how does the protein stability index read?
The protein stability index was 3.3.

For I4V, which protein stability index is on record?
Its protein stability index is 2.54.

For I4W, which protein stability index is on record?
Its protein stability index is 1.94.

With I4Y as the variant, how does the protein stability index read?
The protein stability index was 2.16.

Which protein stability index does the source give for G5A here?
Its protein stability index is 1.63.

For G5C, which protein stability index is on record?
Its protein stability index is 2.82.

For G5D, which protein stability index is on record?
Its protein stability index is 3.11.

With G5E as the variant, how does the protein stability index read?
Its protein stability index is 2.42.

With G5F as the variant, how does the protein stability index read?
The protein stability index was 2.47.

With G5H as the variant, how does the protein stability index read?
Its protein stability index is 1.6.

Which protein stability index does the source give for G5I here?
The protein stability index was 2.51.

Which protein stability index does the source give for G5K here?
Its protein stability index is 1.95.

With G5L as the variant, how does the protein stability index read?
Its protein stability index is 3.04.

Which protein stability index does the source give for G5M here?
Its protein stability index is 2.84.

For G5N, which protein stability index is on record?
Its protein stability index is 2.18.

Which protein stability index does the source give for G5P here?
Its protein stability index is 2.36.

For G5Q, which protein stability index is on record?
Its protein stability index is 1.66.

With G5R as the variant, how does the protein stability index read?
Its protein stability index is 1.61.

For G5S, which protein stability index is on record?
Its protein stability index is 1.56.

For G5T, which protein stability index is on record?
The protein stability index was 2.24.

Which protein stability index does the source give for G5V here?
Its protein stability index is 2.71.

Which protein stability index does the source give for G5W here?
The protein stability index was 2.37.

For G5Y, which protein stability index is on record?
The protein stability index was 2.35.

For V6A, which protein stability index is on record?
Its protein stability index is 2.52.

Which protein stability index does the source give for V6C here?
The protein stability index was 1.96.

With V6D as the variant, how does the protein stability index read?
Its protein stability index is 3.75.

Which protein stability index does the source give for V6E here?
The protein stability index was 2.99.

With V6F as the variant, how does the protein stability index read?
The protein stability index was 2.27.

Which protein stability index does the source give for V6G here?
The protein stability index was 2.54.

With V6H as the variant, how does the protein stability index read?
The protein stability index was 2.46.

For V6I, which protein stability index is on record?
The protein stability index was 1.75.

For V6K, which protein stability index is on record?
The protein stability index was 2.61.

For V6L, which protein stability index is on record?
Its protein stability index is 2.25.

With V6M as the variant, how does the protein stability index read?
The protein stability index was 1.76.

For V6N, which protein stability index is on record?
Its protein stability index is 3.61.

For V6P, which protein stability index is on record?
Its protein stability index is 1.82.

With V6Q as the variant, how does the protein stability index read?
Its protein stability index is 2.64.

With V6R as the variant, how does the protein stability index read?
Its protein stability index is 2.35.

With V6S as the variant, how does the protein stability index read?
The protein stability index was 2.75.

For V6T, which protein stability index is on record?
Its protein stability index is 2.33.

For V6W, which protein stability index is on record?
Its protein stability index is 1.76.

Which protein stability index does the source give for V6Y here?
Its protein stability index is 1.9.

With E7A as the variant, how does the protein stability index read?
Its protein stability index is 1.69.

Which protein stability index does the source give for E7C here?
Its protein stability index is 1.81.

With E7D as the variant, how does the protein stability index read?
Its protein stability index is 1.86.

For E7F, which protein stability index is on record?
Its protein stability index is 3.54.

With E7G as the variant, how does the protein stability index read?
Its protein stability index is 1.94.

Which protein stability index does the source give for E7H here?
Its protein stability index is 1.15.

Which protein stability index does the source give for E7I here?
The protein stability index was 1.7.

For E7K, which protein stability index is on record?
The protein stability index was 1.72.

With E7L as the variant, how does the protein stability index read?
Its protein stability index is 1.92.

With E7M as the variant, how does the protein stability index read?
Its protein stability index is 2.14.

Which protein stability index does the source give for E7N here?
Its protein stability index is 1.88.

With E7P as the variant, how does the protein stability index read?
The protein stability index was 2.2.

Which protein stability index does the source give for E7Q here?
Its protein stability index is 1.55.

With E7R as the variant, how does the protein stability index read?
Its protein stability index is 1.33.

With E7S as the variant, how does the protein stability index read?
Its protein stability index is 1.94.

Which protein stability index does the source give for E7T here?
Its protein stability index is 1.61.

With E7V as the variant, how does the protein stability index read?
The protein stability index was 2.84.

For E7W, which protein stability index is on record?
Its protein stability index is 3.4.

With E7Y as the variant, how does the protein stability index read?
The protein stability index was 2.91.

Which protein stability index does the source give for E8A here?
The protein stability index was 2.25.

With E8C as the variant, how does the protein stability index read?
The protein stability index was 3.48.

For E8D, which protein stability index is on record?
Its protein stability index is 1.69.

With E8F as the variant, how does the protein stability index read?
Its protein stability index is 2.49.

For E8G, which protein stability index is on record?
The protein stability index was 2.18.

With E8H as the variant, how does the protein stability index read?
The protein stability index was 2.08.

With E8I as the variant, how does the protein stability index read?
Its protein stability index is 4.45.

Which protein stability index does the source give for E8K here?
The protein stability index was 2.11.

Which protein stability index does the source give for E8L here?
The protein stability index was 2.75.

For E8M, which protein stability index is on record?
The protein stability index was 1.95.

Which protein stability index does the source give for E8N here?
Its protein stability index is 1.48.

Which protein stability index does the source give for E8P here?
The protein stability index was 1.75.

With E8Q as the variant, how does the protein stability index read?
Its protein stability index is 1.78.

With E8R as the variant, how does the protein stability index read?
Its protein stability index is 1.89.

For E8S, which protein stability index is on record?
Its protein stability index is 2.09.

With E8T as the variant, how does the protein stability index read?
Its protein stability index is 1.73.

With E8V as the variant, how does the protein stability index read?
Its protein stability index is 2.45.

With E8W as the variant, how does the protein stability index read?
The protein stability index was 4.73.

For E8Y, which protein stability index is on record?
Its protein stability index is 2.87.

With P9A as the variant, how does the protein stability index read?
Its protein stability index is 2.65.

With P9C as the variant, how does the protein stability index read?
Its protein stability index is 1.87.

With P9D as the variant, how does the protein stability index read?
The protein stability index was 2.53.

With P9E as the variant, how does the protein stability index read?
The protein stability index was 2.44.

Which protein stability index does the source give for P9F here?
The protein stability index was 2.45.

Which protein stability index does the source give for P9G here?
The protein stability index was 2.31.

With P9H as the variant, how does the protein stability index read?
Its protein stability index is 1.74.

For P9I, which protein stability index is on record?
The protein stability index was 2.47.

With P9K as the variant, how does the protein stability index read?
Its protein stability index is 2.31.

For P9L, which protein stability index is on record?
Its protein stability index is 2.23.

For P9M, which protein stability index is on record?
Its protein stability index is 2.09.

Which protein stability index does the source give for P9N here?
Its protein stability index is 2.27.

Which protein stability index does the source give for P9Q here?
Its protein stability index is 2.17.

Which protein stability index does the source give for P9R here?
The protein stability index was 2.27.

Which protein stability index does the source give for P9S here?
Its protein stability index is 1.73.

For P9T, which protein stability index is on record?
The protein stability index was 2.12.

For P9V, which protein stability index is on record?
Its protein stability index is 1.44.

Which protein stability index does the source give for P9W here?
Its protein stability index is 3.09.

Which protein stability index does the source give for P9Y here?
The protein stability index was 2.19.

For S10A, which protein stability index is on record?
Its protein stability index is 2.58.
